Source: PMC7545097, “Mapping the native interaction surfaces of PREP1 with PBX1 by cross-linking mass-spectrometry and mutagenesis” (Scientific Reports, 2020)

B1: PBX1_(1-430), wild-type recombinant [human] / PREP1_(1-436), wild-type recombinant (TR-FIA) [not stated] (parent complex)
chain 1: MDEQPRLMHSHAGVGMAGHPGLSQHLQDGAGGTEGEGGRKQDIGDILQQIMTITDQSLDEAQARKHALNCHRMKPALFNVLCEIKEKTVLSIRGAQEEEPTDPQLMRLDNMLLAEGVAGPEKGGGSAAAAAAAAASGGAGSDNSVEHSDYRAKLSQIRQIYHTELEKYEQACNEFTTHVMNLLREQSRTRPISPKEIERMVSIIHRKFSSIQMQLKQSTCEAVMILRSRFLDARRKRRNFNKQATEILNEYFYSHLSNPYPSEEAKEELAKKCGITVSQVSNWFGNKRIRYKKNIGKFQEEANIYAAKTAVTATNVSAHGSQANSPSTPNSAGSSSSFNMSNSGDLFMSVQSLNGDSYQGAQVGANVQSQVDTLRHVISQTGGYSDGLAASQMYSPQGISANGGWQDATTPSSVTSPTEGPGSVHSDTSN
chain 2: MMATQTLSIDSYQDGQQMQVVTELKTEQDPNCSEPDAEGVSPPPVESQTPMDVDKQAIYRHPLFPLLALLFEKCEQSTQGSEGTTSASFDVDIENFVRKQEKEGKPFFCEDPETDNLMVKAIQVLRIHLLELEKVNELCKDFCSRYIACLKTKMNSETLLSGEPGSPYSPVQSQQIQSAITGTISPQGIVVPASALQQGNVAMATVAGGTVYQPVTVVTPQGQVVTQTLSPGTIRIQNSQLQLQLNQDLSILHQDDGSSKNKRGVLPKHATNVMRSWLFQHIGHPYPTEDEKKQIAAQTNLTLLQVNNWFINARRRILQPMLDSSCSETPKTKKKTAQNRPVQRFWPDSIASGVAQPPPSELTMSEGAVVTITTPVNMNVDSLQSLSSDGATLAVQQVMMAGQSEDESVDSTEEDAGALAPAHISGLVLENSDSLQ

Variants of: B1
Assay: TR-FIA; parent: 1; read off a plot
A ratio to parent of ~0.9 was found for chain 1 I46A in this work.
A ratio to parent of ~0.45 was found for chain 1 V80A in this work.
A ratio to parent of ~0.56 was found for chain 1 I84A in this work.
A ratio to parent of ~0.75 was found for chain 1 L47A in this work.
A ratio to parent of ~0.64 was found for chain 1 I197A, chain 1 I204A in this work.
A ratio to parent of ~0.42 was found for chain 1 L77A, chain 1 V80A in this work.
A ratio to parent of ~0.71 was found for chain 1 L105A in this work.
A ratio to parent of ~0.62 was found for chain 1 I50A in this work.
A ratio to parent of ~0.63 was found for chain 1 L77A in this work.
A ratio to parent of ~0.62 was found for chain 1 L105A, chain 1 L108A in this work.
A ratio to parent of ~0.66 was found for chain 1 L113A in this work.
A ratio to parent of ~0.93 was found for chain 1 I53A in this work.
A ratio to parent of ~1 was found for chain 1 I43A in this work.
A ratio to parent of ~0.8 was found for chain 1 I43A, chain 1 I46A, chain 1 I50A in this work.
A ratio to parent of ~0.84 was found for chain 1 I43A, chain 1 I50A in this work.
A ratio to parent of ~0.46 was found for chain 1 L77A, chain 1 I84A in this work.
A ratio to parent of ~0.79 was found for chain 1 I43A, chain 1 I46A in this work.
A ratio to parent of ~0.39 was found for chain 1 V80A, chain 1 L81A in this work.
A ratio to parent of ~0.73 was found for chain 1 L108A in this work.
A ratio to parent of ~0.34 was found for chain 1 L77A, chain 1 V80A, chain 1 L81A in this work.
